In the test the target is recombinant human TNFα (RDI) (human) (UniProt P01375). The test is described as follows: cell-based or functional assay.
Sequence of recombinant human TNFα (RDI) (human) (P01375 77-233 limits assumed): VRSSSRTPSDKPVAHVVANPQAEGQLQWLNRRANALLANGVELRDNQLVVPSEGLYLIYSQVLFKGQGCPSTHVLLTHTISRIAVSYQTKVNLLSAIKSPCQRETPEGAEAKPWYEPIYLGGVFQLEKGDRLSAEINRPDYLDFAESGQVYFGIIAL

B1: MMP7 (enzyme, UniProt P09237 95-267, looked up, species assumed)
Matrilysin: YSLFPNSPKWTSKVVTYRIVSYTRDLPHITVDRLVSKALNMWGKEIPLHFRKVVWGTADIMIGFARGAHGDSYPFDGPGNTLAHAFAPGTGLGGDAHFDEDERWTDGSSLGINFLYAATHELGHSLGMGHSSDPNAVMYPTYGNGDPQNFKLSQDDIKGIQKLYGKRSNSRKK
As to B1, the L929 cell survival at the dilution equivalent to ~600 pg/ml TNFα (reference standard: 10% survival) stood at 40 % survival and the log reduction in TNFα activity at the 50% survival level, L929 cytotoxicity bioassay after overnight digestion was 1.22 log.

The values above are taken from patent US20050074865A1.
